Article PMC5238595

How the values were obtained:
[1] = biological target: PCP-X construct from teicoplanin biosynthesis with MBP as N-terminal fusion partner (Actinoplanes teichomyceticus) (UniProt Q70AZ6)
[2] = biological target: hybrid PCP-X construct: teicoplanin PCP-domain and A47934 X-domain, with MBP as N-terminal fusion partner (Actinoplanes teichomyceticus | Streptomyces toyocaensis)
[3] = biological target: A47934 PCP-X di-domain construct with maltose binding protein as N-terminal fusion partner (Streptomyces toyocaensis)
[4] = biological target: hybrid PCP-X construct: A47934 PCP-domain and teicoplanin X-domain, with MBP as N-terminal fusion partner (Streptomyces toyocaensis | Actinoplanes teichomyceticus) (UniProt Q70AZ6)

Sequence of UniProt Q70AZ6 (Q70AZ6 entry or part of it): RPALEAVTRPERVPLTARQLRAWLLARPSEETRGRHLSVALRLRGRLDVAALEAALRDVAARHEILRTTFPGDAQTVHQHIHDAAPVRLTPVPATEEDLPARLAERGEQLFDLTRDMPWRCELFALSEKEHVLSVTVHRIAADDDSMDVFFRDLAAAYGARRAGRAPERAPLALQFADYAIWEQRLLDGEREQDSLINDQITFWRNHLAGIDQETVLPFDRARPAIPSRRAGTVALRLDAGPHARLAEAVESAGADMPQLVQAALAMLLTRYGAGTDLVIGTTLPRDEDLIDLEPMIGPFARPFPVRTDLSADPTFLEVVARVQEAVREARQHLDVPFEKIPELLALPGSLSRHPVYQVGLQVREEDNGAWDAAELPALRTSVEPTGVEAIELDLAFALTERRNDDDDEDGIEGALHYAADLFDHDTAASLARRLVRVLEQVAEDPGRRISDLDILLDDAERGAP

“StaF, the D-O-E ring forming Oxy enzyme (cytochrome P450) from A47934 biosynthesis” was tested, and the StaF turnover activity (bicyclic product / sum of mono- and bicyclic product, HPLC-MS) on Act7-rac-Hpg7 bound to MBP-PCP-Xtei, with StaH (entry 8) [1] was 24.9%, the StaF turnover activity (bicyclic product / sum of mono- and bicyclic product, HPLC-MS) on Tei7-L-Hpg7 bound to MBP-PCP-Xtei, with StaH (entry 5) [1] was 5.7% and the StaF turnover activity (bicyclic product / sum of mono- and bicyclic product, HPLC-MS) on Act7-rac-Hpg7 bound to MBP-PCPtei-Xsta, with StaH (entry 16) [2] was 31.5%. For the same substance, the StaF turnover activity (bicyclic product / sum of mono- and bicyclic product, HPLC-MS) on Tei7-L-Hpg7 bound to MBP-PCPtei-Xsta, with StaH (entry 13) [2] was 21.1%, the StaF turnover activity (bicyclic product / sum of mono- and bicyclic product, HPLC-MS) on Act7-rac-Hpg7 bound to MBP-PCP-Xsta, with StaH (entry 4) [3] was 25.5% and the StaF turnover activity (bicyclic product / sum of mono- and bicyclic product, HPLC-MS) on Tei7-L-Hpg7 bound to MBP-PCP-Xsta, with StaH (entry 1) [3] was 23.8%. For the same substance, the StaF turnover activity (bicyclic product / sum of mono- and bicyclic product, HPLC-MS) on Act7-rac-Hpg7 bound to MBP-PCPsta-Xtei, with StaH (entry 12) [4] was 7.8% and the StaF turnover activity (bicyclic product / sum of mono- and bicyclic product, HPLC-MS) on Tei7-L-Hpg7 bound to MBP-PCPsta-Xtei, with StaH (entry 9) [4] was 2.9%.
